Results on 41 sequences are retold here after the supplement of paper PMC12764529.

The data set is described as follows: folding stability dG unfold (combined trypsin and chymotrypsin); higher = more stable. How it is done:
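Folding stability of de novo designed mini-proteins (<80 aa, no Cys; designed by TrROS, TrMRF, ProteinMPNN and the joint model) was measured by cDNA display proteolysis with trypsin and chymotrypsin. Each protease was used at 11 concentrations in a threefold dilution series plus a no-protease condition. K50 was inferred by Bayesian fitting of sequencing counts, and dG unfold was derived against a sequence-predicted unfolded-state K50 (Tsuboyama et al. method). Sequences shown include variable-length N-terminal GS-type padding (SAGGSAGG...) inside a display construct carrying a PA tag. Rows were kept only if the AF2 dimer inter-PAE was >15, to exclude likely homo-oligomers.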
Take “SAGGSAGGSAKIIVWGRTPEGAKEKAKEFADNIQKEMQENGMPPKNIKIPIEIFDPEAMPDSAGGSAGGSAG [r3_249_TrROS]”: the “folding stability dG unfold” value is less than -1 kcal/mol.

Consider “SAGGSAGGSAKTYIIPIKDLGPDENGKYHIDIAVEKVKKLFPDENITSVDIDGFEKIGELAESAGGSAGGSA [r18_72_TrMRF]”, for which the “folding stability dG unfold” value was less than -1 kcal/mol. For the sequence “SAGGSAGGSAMDPDDQLPTIEEIAKKFGMDATIEPRRNPNGMPYRTATVQNNGGPVGEISIPSAGGSAGGSA [r18_369_TrROS]”, the “folding stability dG unfold” value was less than -1 kcal/mol. As to “SAGGSAGGSAMSPSLPGKYEVLLTDPRPGVGPPVTRRVTLTPEEIEATIPPGAGREVVELPSAGGSAGGSAG [r3_223_JUSTAS]”, the “folding stability dG unfold” value is less than -1 kcal/mol. The value for “SAGGSAGGSAMTLLSEKEVPGTDLTIKYVEEKLPGERVIRTLTIKKNSVVEEKEFPVGELPSAGGSAGGSAG [r3_48_JUSTAS]” was less than -1 kcal/mol; that for “SAGGSAGGSANFDINIEPHPDKDYLVITVTIPPGMPPGQKVRTWVIDPPDGKILEPEPIKIPDSAGGSAGGS [r12_564_TrROS]” was less than -1 kcal/mol; that for “SAGGSAGGSAPFTAKEAADYAAWKIQKRLKKEGNPDKEITIKAPIEWDPEDGIFRAKIQIEYSAGGSAGGSA [r18_517_TrROS]” was less than -1 kcal/mol. For “SAGGSAGGSAPKPIERVEVGSFTLPPGRRVFPVRARIRGTGEVVVVATDGAPVEEVLKAVEASAGGSAGGSA [r18_345_TrMRF]”, the “folding stability dG unfold” value was less than -1 kcal/mol. With “SAGGSAGGSAREITIMVPPDDPNLTIEEAKDLLQPWGIKKVEIEPHPDGYYIVEIRVPPGLSAGGSAGGSAG [r3_335_TrROS]”, the “folding stability dG unfold” value is less than -1 kcal/mol. The value for “SAGGSAGGSASPKQVPITIEIQTPNKPRKITFPIPEGQEGGPEEIMDRLADDGNYKIDRITSAGGSAGGSAG [r3_31_TrROS]” was less than -1 kcal/mol; that for “SAGGSAGGSASSTTVPLEIPAPEGAVVELTFPDGTTVKATVTPRPDGSYTLKVGNGEIVAPRSAGGSAGGSA [r18_372_JUSTAS]” was less than -1 kcal/mol; that for “SAGGSAGGSASSTVLETEEEPVGKVTTEKVLVPRPDGTPVLRTKLVYRPKDGSLTSETTSLSAGGSAGGSAG [r3_94_JUSTAS]” was less than -1 kcal/mol.

With “SAGGSAGGSATIRPGEPIRIKIKYPNPDGKPQERTYNGNVPPGSTLEELADNFPGYKVEIEKSAGGSAGGSA [r18_279_TrROS]”, the “folding stability dG unfold” value was less than -1 kcal/mol. The result for “SAGGSAGGSDKEREVPIEVRYPNQPLKIPVEFKDEEDAPHKARSAIKPLMKKLPMVKIPKPDDSAGGSAGGS [r12_230_TrROS]” reads less than -1 kcal/mol; that for “SAGGSAGGSDPNIKVEIWHPNNGQPRTFPAGDSIDELAENMPGPVQIKIEYPGKEKTLMIPFKSAGGSAGGS [r12_1056_TrROS]”, less than -1 kcal/mol. The result for “SAGGSAGGSEIEIMAPFKSPEDARDQIREFAREKGLEIKPKKIEVHRNPNGWQWVTFKIEIKDSAGGSAGGS [r12_924_TrROS]” reads less than -1 kcal/mol; that for “SAGGSAGGSEKYRVRFPDGQPLPFPNGKSHPMKPGEEMEIESPEDKDRLKDHFPGFPVEVEPLSAGGSAGGS [r12_987_TrROS]”, less than -1 kcal/mol.

As for “SAGGSAGGSFEVHYDPEPNNLTIRMEFPGGRRTYRIPSADDVKDWFEDMGMPFKPMEITKIEPSAGGSAGGS [r12_834_TrROS]”, the “folding stability dG unfold” value was less than -1 kcal/mol. For “SAGGSAGGSGEFLSDLPPDWEVSTEPLPSDTVRYTVTAPTGPVSAVSLPVGDREVRTSATPPVSAGGSAGGS [r20_50_JUSTAS]”, the “folding stability dG unfold” value is less than -1 kcal/mol.

For the sequence “SAGGSAGGSGGLGGEPISVRTELVTVPVELEEEVLLPGGVPLPRRRTVERVVAVTTRVPPGAALSAGGSAGG [r6_526_JUSTAS]”, the “folding stability dG unfold” value is less than -1 kcal/mol.

Consider “SAGGSAGGSGKKYILRFKNPEKARSFAKPLGLKVKPGDDLPVDDPEKFLKSLPLLKDIVVEDKSAGGSAGGS [r12_571_TrMRF]”, for which the “folding stability dG unfold” value is less than -1 kcal/mol.

Take “SAGGSAGGSGMAVVEVDITGPTSTSEEEAQARAEALAAEIAAASDSADVRATVRFSRVPPELPSAGGSAGGS [r12_522_JUSTAS]”: the “folding stability dG unfold” value was less than -1 kcal/mol. The result for “SAGGSAGGSGSGSVTVPVTSTDPVTGKPSVSTVTVSLDVVPPPPVPATVFFDPVRGRRSTDLGGSAGGSAGG [r6_926_JUSTAS]” reads less than -1 kcal/mol; that for “SAGGSAGGSHWAEELAKEAGLKVKIDDMMKNPDGYPYVIVKIKPPDGGKRTVMFDGNQPRIYPSAGGSAGGS [r12_279_TrROS]”, less than -1 kcal/mol; that for “SAGGSAGGSKIKIEDIHPNPNGMFMFRIRPPDNGKPREVPFDSPEDAERFADELEEDGYKIEISAGGSAGGS [r20_177_TrROS]”, less than -1 kcal/mol. For the sequence “SAGGSAGGSLKPGAPVMYRIRNPENGRKFPFQIKIKEDGGIDIEYPSNGKTMTIPPDNIEPVPSAGGSAGGS [r12_726_TrROS]”, the “folding stability dG unfold” value is less than -1 kcal/mol. In the case of “SAGGSAGGSLRPGEPFKIYSPNGEKFPFKIESVEVDPDGEIPLTITNPNGKPIGPFPYRIKPLSAGGSAGGS [r12_735_TrROS]”, the “folding stability dG unfold” value is less than -1 kcal/mol. For the sequence “SAGGSAGGSMDLEDMKIKSIYIPDNPIMITFKNKGKHRTRTIPEDNWQILKDLLGDGDITIHPSAGGSAGGS [r12_604_TrROS]”, the “folding stability dG unfold” value was less than -1 kcal/mol. The result for “SAGGSAGGSMEMETYPLNGFTVMVMRNPNDGRETVQIFMPDNGKPIQMPPEDLQQDPDLIDALSAGGSAGGS [r12_817_TrROS]” reads less than -1 kcal/mol; that for “SAGGSAGGSMKKLLVERKPDGTVTVVDVLPADRSAEELPPEELTSFTLLPFESLEEALKKAAASAGGSAGGS [r12_452_JUSTAS]”, less than -1 kcal/mol; that for “SAGGSAGGSMKYLVRFPEGGSLPFPDGSSVPMKPGEVLEVESPADVEALKKLAPGRDIEVEPVSAGGSAGGS [r12_987_TrMRF]”, less than -1 kcal/mol. The result for “SAGGSAGGSMNEVSEEEAIAEAVAKHAPDEPVTYELKDNKKIVVNVNGADPANVSIEVIPIKNSAGGSAGGS [r12_648_JUSTAS]” reads less than -1 kcal/mol; that for “SAGGSAGGSNIKDALDNFPPGYQTDVDPNSGTISVRFPDEGWEHQIEIPAEEGKVEINEWKPYSAGGSAGGS [r12_82_TrROS]”, less than -1 kcal/mol. The result for “SAGGSAGGSNVEIDTTRTPDRYTVKIRFPDNGKKVEIPFDPGQPPNQAKDRAKELAKKNGIKISAGGSAGGS [r12_764_TrROS]” reads less than -1 kcal/mol. Consider “SAGGSAGGSPIPVPLVIFFPDSETTEIVPATPELFEALAAELAALGPVVRRGPERTMTITVPRSAGGSAGGS [r12_292_JUSTAS]”, for which the “folding stability dG unfold” value was less than -1 kcal/mol. The value for “SAGGSAGGSPIRRALRYVREQFPPGQPYRVRARNPGNGKEREIEVPWNDPEELDNTKDIEVEPYSAGGSAGG [r6_402_TrROS]” was less than -1 kcal/mol; that for “SAGGSAGGSPKPMKLRFRNPDNGMPFEVNVDKIDPDGQLRVEIEQPNGKTRKIDNIDNVEIEKSAGGSAGGS [r12_118_TrROS]” was less than -1 kcal/mol. The result for “SAGGSAGGSPKWKVEPIGNRIRIMIPDGPYYTARLPDDVKLDLDEGKFKFPPGLEVEPVPLKESAGGSAGGS [r20_158_TrROS]” reads less than -1 kcal/mol. The result for “SAGGSAGGSPPPKVKVKKFHRDPPNGYVRANIEFPDKRDIEIQMENMPPDQAEEKAKNLAKKLSAGGSAGGS [r20_181_TrROS]” reads less than -1 kcal/mol. Turning to “SAGGSAGGSRYFIRIELRHPDDGQEYEPTIPINPGQTEEQVKQEIREHHPGADIKDIEIYPMDSAGGSAGGS [r12_738_TrROS]”, the “folding stability dG unfold” value is less than -1 kcal/mol. The value for “SAGGSAGGSSAITHPDSDAGVAPVATTRSPNATPETVLRDDSPDPRRWILTASGERRVEPLLESAGGSAGGS [r12_205_JUSTAS]” was less than -1 kcal/mol.
